Where two headings read alike, the source gives them in different places.
What was measured:
[1] = target: T1, human CD47 (recombinant protein, construct not stated) (human, UniProt Q08722 19-141); experiment: ELISA on coated human CD47
T1 construct: also called hCD47; human CD47 protein
Method: (§1) 96-well plates (Nunc, Denmark) were coated with 1 μg/ml of human CD47 or VISTA protein in PBS, for 1 h at room temperature. Plates were blocked for 1 h at room temperature with 1% BSA in Tris buffer saline containing 0.05% Tween 20 (TBS-T). The test antigen-binding molecules were added at concentrations ranging from to 0.002 μg/ml to 200 μg/ml, and the plates were incubated at room temperature for 1 h. Plates were then washed three times with TBS-T, and were then incubated with a HRP-conjugated secondary antibody for 1 h at room temperature. After washing, plates were developed with colorimetric detection substrate 3,3′,5,5′-tetramethylbenzidine (Turbo-TMB; Pierce, USA). The reaction was stopped after 3.5 min with 2M […], and OD was measured at 450 nm.

[2] = target: human VISTA protein (human, UniProt Q9H7M9 33-194, limits assumed); experiment: ELISA on coated human VISTA protein
Method: as §1
In a separate ELISA, the antigen-binding molecules were evaluated for binding to human VISTA.

[3] = target: T2, untagged human CD47 protein (Sinobiological Inc) (human, UniProt Q08722 19-141); experiment: competition ELISA: inhibition of His-tagged SIRPα binding to coated human CD47
T2 construct: Bought

[4] = target: T1, human CD47 (recombinant protein, …); experiment: BLI (BLItz), IgG1 captured on anti-human Fc tips, human CD47 as analyte, 1:1 global fit
Method: Biosensors were first hydrated for at least 10 m in assay buffer (phosphate buffered saline) followed by buffer baseline for 60 s and loading of the human IgGs onto the biosensor tips at 25 nM for 120 s. The tips were then washed briefly for 60 s with the assay buffer to remove nonspecifically bound proteins or unbound IgGs for obtaining a second buffer baseline. The association phase of the IgGs with antigens (250 nM to 62.5 nM) was set up at 120 s which was followed by a dissociation phase (assay buffer alone) for 120 s. All the BLITz runs were measured at room temperature at a stirring speed of 1000 rpm and AHC biosensors were regenerated using 10 mM of glycine (pH 2.7) after the assay. Binding affinity between the immobilized antibodies on the AHC sensors and human CD47 were determined by analyzing the binding kinetic curves using the software BLItz Pro. All the sensorgrams were reference subtracted and globally fitted into a 1:1 model which analysed the binding curves at different concentrations of antigens and generated kinetic constants (KD/Ka/Kd) for the globally fitted data. All the binding curves were subjected to step correction which corrects the misalignment between association and dissociation steps and only the curves with R² values greater than 0.9 were used for analysis.

[5] = target: T1, human CD47 (recombinant protein, …); experiment: as above; remark: listed apart in the source
Method: Bio-Layer Interferometry (BLI) experiments were performed using a single channel BLItz system (ForteBio, Menlo Park, Calif.) using Anti-human immunoglobulin G (IgG) Fc (AHC) coated biosensor tips (Pall ForteBio, Menlo Park, Calif.) for capturing human IgGs. Biosensors were first hydrated for at least 10 m in assay buffer (phosphate buffered saline) followed by buffer baseline for 30 s and loading of the human IgGs onto the biosensor tips at concentrations ranging from 25-50 nM for 120 s. The tips were then washed briefly for 30 s with the assay buffer to remove nonspecifically bound proteins or unbound IgGs for obtaining a second buffer baseline. […] All the BLITz runs were measured at room temperature at a stirring speed of 1000 rpm and AHC biosensors were regenerated using 10 mM of glycine (pH 2.7) after the assay. Binding affinity between the immobilized antibodies on the AHC sensors and human CD47 were determined by analyzing the binding kinetic curves using the software BLItz Pro. All the sensorgrams were reference subtracted and globally fitted into a 1:1 model which analysed the binding curves at different concentrations of antigens and generated kinetic constants (KD/Ka/Kd) for the globally fitted data. […]
(§2) The anti-CD47 antibody clones in IgG1 format were analyzed for binding affinity to human CD47.

[6] = target: T1, human CD47 (recombinant protein, …); experiment: BLI (BLItz), IgG captured on anti-human IgG Fc (AHC) tips, human CD47 as analyte, global 1:1 fit
Method: Bio-Layer Interferometry (BLI) experiments were performed using a single channel BLItz system (ForteBio, Menlo Park, Calif.) using Anti-human immunoglobulin G (IgG) Fc (AHC) coated biosensor tips (Pall ForteBio, Menlo Park, Calif.) for capturing human IgGs. Biosensors were first hydrated for at least 10 m in assay buffer (phosphate buffered saline) followed by buffer baseline for 30 s and loading of the human IgGs onto the biosensor tips at concentrations ranging from 25-50 nM for 120 s. The tips were then washed briefly for 30 s with the assay buffer to remove nonspecifically bound proteins or unbound IgGs for obtaining a second buffer baseline. The association phase of the IgGs with antigens (500 nM-0 nM) was set up at 120 s which was followed by a dissociation phase (assay buffer alone) for 120 s. All the BLITz runs were measured at room temperature at a stirring speed of 1000 rpm and AHC biosensors were regenerated using 10 mM of glycine (pH 2.7) after the assay. Binding affinity between the immobilized antibodies on the AHC sensors and human CD47 were determined by analyzing the binding kinetic curves using the software BLItz Pro. All the sensorgrams were reference subtracted and globally fitted into a 1:1 model which analysed the binding curves at different concentrations of antigens and generated kinetic constants (KD/Ka/Kd) for the globally fitted data. All the binding curves were subjected to step correction which corrects the misalignment between association and dissociation steps and only the curves with R² values greater than 0.9 were used for analysis.
as §2

Binder | EC50 [1] | Fold increase in EC50 relative to 1-1-A1_BM [1] | binding result [2] | Fold increase in IC50 relative to 1-1-A1_BM [3] | IC50 [3] | Kd [4] | koff [4] | kon [4] | Kd [5] | koff [6] | kon [6]
11A1H10-IgG1 (antibody, V domains shown, Humanised version of clone 1-1-A1, IgG1/kappa; also called 1A11H10) VH: QVQLVQSGAEVKKPGASVKVSCKASGYTFTGYVIHWVRQAPGQGLEWMGYINPYNGGTNYAQKFKGRVTLTSDTSTTTAYMELSRLRSEDTAVYYCASGGYYTMDYWGQGTLVTVSS VL: DVVMTQSPLSLPVTLGQPASISCRSSQHLEYSNGYSYLHWYQQRPGQSPRLLIYKVSNRDSGVPDRFSGSGSGTDFTLKISRVEAEDVGVYYCSQSTHVPYTFGGGTKVEIKR | 38.1 µg/mL | 21200 fold | no binding (tested: 0.002 µg/ml to 200 µg/ml) | > 200 fold | > 100 µg/mL | 111 nM | 0.00898 s⁻¹ | 80900 M⁻¹ s⁻¹ | – | – | –
11A1H9-IgG1 (antibody, V domains shown, Humanised version of clone 1-1-A1, IgG1/kappa; also called 1A11H9) VH: QVQLVQSGAEVKKPGASVKVSCKASGYTFTGYVIHWVRQAPGQGLEWMGYINPYNGGTNYAQKFKGRVTLTSDTSTTTAYMELSRLRSEDTAVYYCASGGYYTMDYWGQGTLVTVSS VL: DVVMTQSPLSLPVTLGQPASISCRSSQHLEYSTGYSYLHWYQQRPGQSPRLLIYKVSNRDSGVPDRFSGSGSGTDFTLKISRVEAEDVGVYYCSQSTHVPYTFGGGTKVEIKR | 23.5 µg/mL | 13100 fold | no binding (tested: 0.002 µg/ml to 200 µg/ml) | > 200 fold | > 100 µg/mL | 23.3 nM | 0.00635 s⁻¹ | 273000 M⁻¹ s⁻¹ | – | – | –
11A1H7-IgG1 (antibody, V domains shown, Humanised version of clone 1-1-A1, IgG1/kappa; also called 1A11H7) VH: QVQLVQSGAEVKKPGASVKVSCKASGYTFTGYVIHWVRQAPGQGLEWMGYINPYNGGTNYAQKFKGRVTLTSDTSTTTAYMELSRLRSEDTAVYYCASGGYYTMDYWGQGTLVTVSS VL: DVVMTQSPLSLPVTLGQPASISCRSSQHLEYSQGYSYLHWYQQRPGQSPRLLIYKVSNRDSGVPDRFSGSGSGTDFTLKISRVEAEDVGVYYCSQSTHVPYTFGGGTKVEIKR | 36.8 µg/mL | 20400 fold | no binding (tested: 0.002 µg/ml to 200 µg/ml) | > 200 fold | > 100 µg/mL | – | – | – | – | – | –
11A1H5-IgG1 (antibody, V domains shown, Humanised version of clone 1-1-A1, IgG1/kappa; also called 1A11H5) VH: QVQLVQSGAEVKKPGASVKVSCKASGYTFTGYVIHWVRQAPGQGLEWMGYINPYNGGTNYAQKFKGRVTLTSDTSTTTAYMELSRLRSEDTAVYYCASGGYYTMDYWGQGTLVTVSS VL: DVVMTQSPLSLPVTLGQPASISCRSSQHLEYSNGYSYLHWYQQRPGQSPRLLIYKISNRFSGVPDRFSGSGSGTDFTLKISRVEAEDVGVYYCSQSTHVPYTFGGGTKVEIKR | 0.00015 µg/mL | 0.08 fold | no binding (tested: 0.002 µg/ml to 200 µg/ml) | 0.42 fold | 0.201 µg/mL | 9.28 nM | 0.0012 s⁻¹ | 129000 M⁻¹ s⁻¹ | – | – | –
11A1H11-IgG1 (antibody, V domains shown, Humanised version of clone 1-1-A1, IgG1/kappa; also called 1A11H11) VH: QVQLVQSGAEVKKPGASVKVSCKASGYTFTGYVIHWVRQAPGQGLEWMGYINPYNGGTNYAQKFKGRVTLTSDTSTTTAYMELSRLRSEDTAVYYCASGGYYTMDYWGQGTLVTVSS VL: DVVMTQSPLSLPVTLGQPASISCRSSQHLEYSNGYSYLHWYQQRPGQSPRLLIYKISNRFSGVPDRFSGSGSGTDFTLKISRVEAEDVGVYYCSQGTHVPYTFGGGTKVEIKR | 0.0021 µg/mL | 1.17 fold | no binding (tested: 0.002 µg/ml to 200 µg/ml) | 1.02 fold | 0.483 µg/mL | – | – | – | – | – | –
anti-CD47 clone 1-1-A1 IgG1 (antibody, V domains shown) VH: EVQLQQSGPDLVKPGASVKMSCKASGYTFTNYVIHWVKQKPGQGLEWIGYINPYNDGTKSNEKFKGKATLTSDKSSTSAYMELSSLTSEDSAVYYCASGGYYTMDYWGQGTSVTVSS VL: DVVMTQTPLSLPVSLGDQASISCRSSQHLEYSNGYSYLHWYLQKPGQSPQLLIYKISNRFSGVPDRFSGSGSGTDFTLKISRVEAEDLGVYFCSQSTHVPYTFGGGTKLEIKR | – | – | – | – | – | – | – | – | 9 nM | 0.00371 s⁻¹ | 451000 M⁻¹ s⁻¹
11A1H4-IgG1 (antibody, V domains shown, Humanised version of clone 1-1-A1, IgG1/kappa; also called 1A11H4) VH: QVQLVQSGAEVKKPGASVKVSCKASGYTFTNYVIHWVRQAPGQGLEWMGYINPYNDGTKYNQKFKGRVTLTSDTSTTTAYMELSRLRSDDTAVYYCASGGYYTMDYWGQGTLVASTK VL: DVVMTQSPLSLPVTLGQPASISCRSSQHLEYSNGYSYLHWYQQRPGQSPRLLIYKISNRFSGVPDRFSGSGSGTDFTLKISRVEAEDVGVYYCSQSTHVPYTFGGGTKVEIKR | 0.00018 µg/mL | 0.1 fold | no binding (tested: 0.002 µg/ml to 200 µg/ml) | 0.32 fold | 0.15 µg/mL | – | – | – | – | – | –
11A1H6-IgG1 (antibody, V domains shown, Humanised version of clone 1-1-A1, IgG1/kappa; also called 1A11H6) VH: QVQLVQSGAEVKKPGASVKVSCKASGYTFTNYVIHWVRQAPGQGLEWMGYINPYNDGTKYNQKFKGRVTLTSDTSTTTAYMELSRLRSDDTAVYYCASGGYYTMDYWGQGTLVASTK VL: DVVMTQSPLSLPVTLGQPASISCRSSQHLEYSQGYSYLHWYQQRPGQSPRLLIYKVSNRDSGVPDRFSGSGSGTDFTLKISRVEAEDVGVYYCSQSTHVPYTFGGGTKVEIKR | 13.4 µg/mL | 7440 fold | no binding (tested: 0.002 µg/ml to 200 µg/ml) | > 200 fold | > 100 µg/mL | 134 nM | 0.0144 s⁻¹ | 108000 M⁻¹ s⁻¹ | – | – | –
11A1H3-IgG1 (antibody, V domains shown, Humanised version of clone 1-1-A1, IgG1/kappa; also called 1A11H3) VH: QVQLVQSGAEVKKPGASVKVSCKASGYTFTNYVMHWVRQAPGQGLEWMGYINPYNDGTKSNEKFQGRVTLTSDTSTSTAYMELSSLRSEDTAVYYCASGGYYTMDYWGQGTLVASTK VL: DVVMTQSPLSLPVTLGQPASISCRSSQHLEYSNGYSYLHWYQQRPGQSPRLLIYKISNRFSGVPDRFSGSGSGTDFTLKISRVEAEDVGVYYCSQSTHVPYTFGGGTKVEIKR | 0.00022 µg/mL | 0.12 fold | no binding (tested: 0.002 µg/ml to 200 µg/ml) | – | – | 3.39 nM | 0.000904 s⁻¹ | 266000 M⁻¹ s⁻¹ | – | – | –
